Laboratory results taken from patent publication US20130273062A1, “ANTIBODIES AGAINST HUMAN CD39 AND USE THEREOF” (OREGA BIOTECH, priority 2010, published 2013).

What was measured:
[1] = system: CD4 and CD8 T cells (PBMC) cultured with CD39-expressing SK-MEL-5 melanoma cells; test: Inhibition of melanoma cell-mediated suppression: proliferation of CFSE-labelled T cells co-cultured with irradiated SK-MEL-5; format: cell-based, human; conditions: CFSE-labelled PBMC + irradiated SK-MEL-5, 5 days, BY40 5 μg/mL, POM-1 100 or 250 μM, flow cytometry; for CD4 T cell proliferation: FIG. 4A; for CD8 T cell proliferation: FIG. 4B
Protocol: (§1) FIG. 4: CD39 antibody (BY40) restores T cell responses against melanoma cells. 5×10^4 CFSE-labelled PBMC were cultured in the presence of 5×10^3 irradiated (100 Gy) SK-MEL-5 (NT). POM-1 (100 or 250 μM), BY40 or control isotype antibody D6212 (5 μg/mL) were added at the beginning of the culture and after 2 days of culture. After 5 days of culture, proliferation of CFSE-labelled CD4 (A) and CD8 (B) T cells was analysed by flow cytometry. Experiment was performed in duplicate and results are representative of 2 independent experiments.
as §1, with “5×10^4” for “FIG. 4: CD39 antibody (BY40) restores T cell responses against melanoma cells. 5×10^4”

[2] = biological target: T1, CD39 ATPase activity of lymphoma cells (Ramos) (Homo sapiens, UniProt P49961); test: Inhibition of lymphoma-CD39 enzymatic (ATPase) activity, phosphate release measured with Malachite green; format: cell-based; conditions: Ramos cells cultured with increasing doses of mAb for 16 h, then 100 μM ATP for 15 min; FIG. 7
T1 construct: BL41, B104 and Ramos express CD39 at their cell surface; endogenous in cells; host or cells: Ramos Burkitt lymphoma cells
T1 sequence (P49961 1-510): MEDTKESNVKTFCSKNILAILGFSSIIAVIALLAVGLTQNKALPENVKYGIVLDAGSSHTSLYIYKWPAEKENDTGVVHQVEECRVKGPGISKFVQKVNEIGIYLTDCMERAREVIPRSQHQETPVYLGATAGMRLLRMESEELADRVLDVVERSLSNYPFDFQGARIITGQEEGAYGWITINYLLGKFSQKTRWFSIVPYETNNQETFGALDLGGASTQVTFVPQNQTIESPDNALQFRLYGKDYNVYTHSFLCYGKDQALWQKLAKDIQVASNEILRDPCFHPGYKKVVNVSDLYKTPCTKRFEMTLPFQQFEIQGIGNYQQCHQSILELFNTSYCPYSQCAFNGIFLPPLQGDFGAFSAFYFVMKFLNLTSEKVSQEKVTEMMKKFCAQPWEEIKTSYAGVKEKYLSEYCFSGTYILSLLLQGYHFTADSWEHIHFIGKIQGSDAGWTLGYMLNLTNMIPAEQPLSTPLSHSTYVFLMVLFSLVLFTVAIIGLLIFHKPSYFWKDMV
Protocol: (§2) FIG. 7: CD39 antibodies inhibit CD39 ATPase activity of lymphoma cells. 1×10^5 lymphoma cells (Ramos) were cultured in complete RPMI medium alone or in presence of BA54g, BY12 or BY40 mAbs, at the indicated concentrations, for 16 h. Cells were then washed three times in phosphate free buffer (10 mM glucose, 20 mM Hepes, 5 mM KCl, 120 mM NaCl, 2 mM CaCl2) and resuspended in the same buffer supplemented with 100 μM ATP for 15 min. Phosphate concentration in supernatants was measured after addition of Malachite green/polyvinylalcohol /ammonium mobylate solution for 20 min by a spectrophotometer at 620 nm and compared against a standard curve. Results are the mean of two independent experiments.
as §2, with “1×10^5” for “FIG. 7: CD39 antibodies inhibit CD39 ATPase activity of lymphoma cells. 1×10^5”, “KC1,” for “KCl,”

[3] = biological target: T2, CD39 ATPase activity of melanoma cells (SK-MEL-5) (Homo sapiens, UniProt P49961); test: Inhibition of melanoma-CD39 enzymatic (ATPase) activity, phosphate release measured with Malachite green; format: cell-based; conditions: SK-MEL-5 cells cultured with mAb for 16 h, then 100 μM ATP for 15 min; FIG. 3
T2 construct: SK-MEL-5 and SK-MEL-28 cell lines display membranous expression of CD39; endogenous in cells; host or cells: SK-MEL-5 melanoma cells
T2 sequence (P49961 1-510): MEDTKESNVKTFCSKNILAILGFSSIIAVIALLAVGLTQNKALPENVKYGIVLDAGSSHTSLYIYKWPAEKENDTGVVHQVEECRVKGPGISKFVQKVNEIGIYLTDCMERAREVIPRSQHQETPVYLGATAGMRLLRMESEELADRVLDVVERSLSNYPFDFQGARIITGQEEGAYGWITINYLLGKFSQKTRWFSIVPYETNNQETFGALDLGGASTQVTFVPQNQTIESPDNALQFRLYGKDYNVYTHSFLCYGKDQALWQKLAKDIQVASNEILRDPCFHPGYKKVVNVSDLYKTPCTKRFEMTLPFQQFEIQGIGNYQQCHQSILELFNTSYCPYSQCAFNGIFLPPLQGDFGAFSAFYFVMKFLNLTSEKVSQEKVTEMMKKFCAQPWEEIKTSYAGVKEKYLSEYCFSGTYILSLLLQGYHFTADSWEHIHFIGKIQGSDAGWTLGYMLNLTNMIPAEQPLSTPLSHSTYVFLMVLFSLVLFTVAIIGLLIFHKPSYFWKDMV
Protocol: (§3) FIG. 3: CD39 (BA54g) antibody inhibits CD39 ATPase activity of melanoma cells. 1×10^5 melanoma cells (SK-MEL-5) were cultured in complete RPMI medium alone or in presence of BA54g mAb for 16 h. Cells were then washed three times in phosphate free buffer (10 mM glucose, 20 mM Hepes, 5 mM KCl, 120 mM NaCl, 2 mM CaCl2) and resuspended in the same buffer supplemented with 100 μM ATP for 15 min. Phosphate concentration in supernatants was measured after addition of Malachite green/polyvinylalcohol/ammonium mobylate solution for 20 min by a spectrophotometer at 620 nm and compared against a standard curve. Experiment was performed in triplicate.
as §3, with “Protocol:” for “FIG. 3: CD39 (BA54g) antibody inhibits CD39 ATPase activity of melanoma cells.”, “min” for “min.”

## [Na+].[Na+].[Na+].[Na+].[Na+].[Na+].[O]=[W](=[O])([O-])[O-].[O]=[W](=[O])([O-])[O-].[O]=[W](=[O])([O-])[O-].[O]=[W](=[O])=[O].[O]=[W](=[O])=[O].[O]=[W](=[O])=[O].[O]=[W](=[O])=[O].[O]=[W](=[O])=[O].[O]=[W](=[O])=[O].[O]=[W](=[O])=[O].[O]=[W](=[O])=[O].[O]=[W](=[O])=[O] [POM-1, sodium metatungstate, reference compound]
[1]
  CD4 T cell proliferation: increased
  CD8 T cell proliferation: increased

B1: BY40: murine CD39 antibody from hybridoma CNCM I-3889; VH SEQ ID NO: 1, VL SEQ ID NO: 5 (antibody, listed as Mus musculus)
VH: TRVKKPRETVKISCKASGYTFTHYGMNWVKQAPGKGLKWMGWINTYTGEPTYADDFKGRFAFSLEASVSTAYLQINNLKNEDTATYFCARRRYEGNYVFYYFDYWGQGTTLTVSSAKTTPPSVYPLAPGSAAQTNSMVTLGCLVKGYFPEQVTVTWNSGSLSSGVHTFPAVLQSDLYTLSSSVTVPS
light: DIQMTQSPASLSASVGETVTITCRASENIYSYFSWYQQKQGKSPQLLVYTAKTLAEGVPSRFSGSGSGTQFSLKINSLQPEDFGSYYCQHHYVTPYTFGGGTKLEIKRADAAPTVSIFPPSSEQLTSGGASVVCFLNNFYPKDINVKWKIDGSERQNGVLNSWTD
[1]
  CD4 T cell proliferation: increased
  CD8 T cell proliferation: increased
[2]
  CD39 activity of lymphoma cells: inhibited CD39 activity in a dose dependant manner

B2: BA54g: CD39 monoclonal antibody from hybridoma CNCM I-4171; VH SEQ ID NO: 11, VL SEQ ID NO: 15 (antibody, listed as Mus musculus, V domains shown)
VH: DVQLVESGGGLVQPGGSRKLSCAASGFTFSSFGMHWVRQAPEKGLEWVAYISSGSSIIYYADTVKGRFTISRDNPKNTLFLQMTSLGSEDTAMYYCARWSTTVVATDYWGQGTTLTVS
VL: NIVMTQSPKSMSMSVGERVTLTCKASENVVTYVSWYQQKPEQSPKLLIYGASNRYTGVPDRFTGSGSATDFTLTISSVQAEDLADYHCGQGYSYPYTFGGGTKLEIKR
[3]
  CD39 enzymatic activity of melanoma cells: inhibits CD39 enzymatic activity in a dose dependant manner
[2]
  CD39 activity of lymphoma cells: inhibited CD39 activity in a dose dependant manner
